Assay results: patent US20110171229A1
Values belong to the substance of their own block, whether it stands above or below them.

How the values were obtained:
[1] = molecular target: chondroitin sulfate proteoglycan 4 (CSPG4) (human) (UniProt Q6UVK1); assay: cell-based or functional assay
[2] = molecular target: chondroitin sulfate proteoglycan 4 (CSPG4) (human) (UniProt Q6UVK1); assay: flow cytometry (FACS), whole cell population of MCF-7 cells
[3] = molecular target: chondroitin sulfate proteoglycan 4 (CSPG4) (human) (UniProt Q6UVK1); assay: flow cytometry (FACS), whole cell population of T-47D cells
[4] = molecular target: chondroitin sulfate proteoglycan 4 (CSPG4) (human) (UniProt Q6UVK1); assay: flow cytometry (FACS), whole cell population of HS578T cells
[5] = molecular target: chondroitin sulfate proteoglycan 4 (CSPG4) (human) (UniProt Q6UVK1); assay: flow cytometry (FACS), whole cell population of SK-BR-3 cells
[6] = molecular target: chondroitin sulfate proteoglycan 4 (CSPG4) (human) (UniProt Q6UVK1); assay: flow cytometry (FACS), whole cell population of SUM-149 cells
[7] = molecular target: chondroitin sulfate proteoglycan 4 (CSPG4) (human) (UniProt Q6UVK1); assay: flow cytometry (FACS), whole cell population of MDA-MB-231 cells
[8] = molecular target: chondroitin sulfate proteoglycan 4 (CSPG4) (human) (UniProt Q6UVK1); assay: flow cytometry (FACS), whole cell population of MDA-MB-435 cells
[9] = molecular target: chondroitin sulfate proteoglycan 4 (CSPG4) (human) (UniProt Q6UVK1); assay: flow cytometry (FACS), CD44+/CD24-/lo putative CSC subpopulation of MCF-7 cells
[10] = molecular target: chondroitin sulfate proteoglycan 4 (CSPG4) (human) (UniProt Q6UVK1); assay: flow cytometry (FACS), CD44+/CD24-/lo putative CSC subpopulation of HS578T cells
[11] = molecular target: chondroitin sulfate proteoglycan 4 (CSPG4) (human) (UniProt Q6UVK1); assay: flow cytometry (FACS), CD44+/CD24-/lo putative CSC subpopulation of SUM-149 cells
[12] = molecular target: chondroitin sulfate proteoglycan 4 (CSPG4) (human) (UniProt Q6UVK1); assay: flow cytometry (FACS), CD44+/CD24-/lo putative CSC subpopulation of MDA-MB-231 cells
[13] = molecular target: chondroitin sulfate proteoglycan 4 (CSPG4) (human) (UniProt Q6UVK1); assay: flow cytometry (FACS), CD44+/CD24-/lo putative CSC subpopulation of MDA-MB-435 cells
[14] = molecular target: chondroitin sulfate proteoglycan 4 (CSPG4) (human) (UniProt Q6UVK1); assay: flow cytometry (FACS), whole cell population of MCF-7 cells; control antibody
[15] = molecular target: chondroitin sulfate proteoglycan 4 (CSPG4) (human) (UniProt Q6UVK1); assay: flow cytometry (FACS), whole cell population of T-47D cells; control antibody
[16] = molecular target: chondroitin sulfate proteoglycan 4 (CSPG4) (human) (UniProt Q6UVK1); assay: flow cytometry (FACS), whole cell population of HS578T cells; control antibody
[17] = molecular target: chondroitin sulfate proteoglycan 4 (CSPG4) (human) (UniProt Q6UVK1); assay: flow cytometry (FACS), whole cell population of SK-BR-3 cells; control antibody
[18] = molecular target: chondroitin sulfate proteoglycan 4 (CSPG4) (human) (UniProt Q6UVK1); assay: flow cytometry (FACS), whole cell population of SUM-149 cells; control antibody
[19] = molecular target: chondroitin sulfate proteoglycan 4 (CSPG4) (human) (UniProt Q6UVK1); assay: flow cytometry (FACS), whole cell population of MDA-MB-231 cells; control antibody
[20] = molecular target: chondroitin sulfate proteoglycan 4 (CSPG4) (human) (UniProt Q6UVK1); assay: flow cytometry (FACS), whole cell population of MDA-MB-435 cells; control antibody
[21] = molecular target: chondroitin sulfate proteoglycan 4 (CSPG4) (human) (UniProt Q6UVK1); assay: flow cytometry (FACS), CD44+/CD24-/lo putative CSC subpopulation of MCF-7 cells; control antibody
[22] = molecular target: chondroitin sulfate proteoglycan 4 (CSPG4) (human) (UniProt Q6UVK1); assay: flow cytometry (FACS), CD44+/CD24-/lo putative CSC subpopulation of HS578T cells; control antibody
[23] = molecular target: chondroitin sulfate proteoglycan 4 (CSPG4) (human) (UniProt Q6UVK1); assay: flow cytometry (FACS), CD44+/CD24-/lo putative CSC subpopulation of SUM-149 cells; control antibody
[24] = molecular target: chondroitin sulfate proteoglycan 4 (CSPG4) (human) (UniProt Q6UVK1); assay: flow cytometry (FACS), CD44+/CD24-/lo putative CSC subpopulation of MDA-MB-231 cells; control antibody
[25] = molecular target: chondroitin sulfate proteoglycan 4 (CSPG4) (human) (UniProt Q6UVK1); assay: flow cytometry (FACS), CD44+/CD24-/lo putative CSC subpopulation of MDA-MB-435 cells; control antibody

UniProt Q6UVK1, sequence (Q6UVK1 30-2322): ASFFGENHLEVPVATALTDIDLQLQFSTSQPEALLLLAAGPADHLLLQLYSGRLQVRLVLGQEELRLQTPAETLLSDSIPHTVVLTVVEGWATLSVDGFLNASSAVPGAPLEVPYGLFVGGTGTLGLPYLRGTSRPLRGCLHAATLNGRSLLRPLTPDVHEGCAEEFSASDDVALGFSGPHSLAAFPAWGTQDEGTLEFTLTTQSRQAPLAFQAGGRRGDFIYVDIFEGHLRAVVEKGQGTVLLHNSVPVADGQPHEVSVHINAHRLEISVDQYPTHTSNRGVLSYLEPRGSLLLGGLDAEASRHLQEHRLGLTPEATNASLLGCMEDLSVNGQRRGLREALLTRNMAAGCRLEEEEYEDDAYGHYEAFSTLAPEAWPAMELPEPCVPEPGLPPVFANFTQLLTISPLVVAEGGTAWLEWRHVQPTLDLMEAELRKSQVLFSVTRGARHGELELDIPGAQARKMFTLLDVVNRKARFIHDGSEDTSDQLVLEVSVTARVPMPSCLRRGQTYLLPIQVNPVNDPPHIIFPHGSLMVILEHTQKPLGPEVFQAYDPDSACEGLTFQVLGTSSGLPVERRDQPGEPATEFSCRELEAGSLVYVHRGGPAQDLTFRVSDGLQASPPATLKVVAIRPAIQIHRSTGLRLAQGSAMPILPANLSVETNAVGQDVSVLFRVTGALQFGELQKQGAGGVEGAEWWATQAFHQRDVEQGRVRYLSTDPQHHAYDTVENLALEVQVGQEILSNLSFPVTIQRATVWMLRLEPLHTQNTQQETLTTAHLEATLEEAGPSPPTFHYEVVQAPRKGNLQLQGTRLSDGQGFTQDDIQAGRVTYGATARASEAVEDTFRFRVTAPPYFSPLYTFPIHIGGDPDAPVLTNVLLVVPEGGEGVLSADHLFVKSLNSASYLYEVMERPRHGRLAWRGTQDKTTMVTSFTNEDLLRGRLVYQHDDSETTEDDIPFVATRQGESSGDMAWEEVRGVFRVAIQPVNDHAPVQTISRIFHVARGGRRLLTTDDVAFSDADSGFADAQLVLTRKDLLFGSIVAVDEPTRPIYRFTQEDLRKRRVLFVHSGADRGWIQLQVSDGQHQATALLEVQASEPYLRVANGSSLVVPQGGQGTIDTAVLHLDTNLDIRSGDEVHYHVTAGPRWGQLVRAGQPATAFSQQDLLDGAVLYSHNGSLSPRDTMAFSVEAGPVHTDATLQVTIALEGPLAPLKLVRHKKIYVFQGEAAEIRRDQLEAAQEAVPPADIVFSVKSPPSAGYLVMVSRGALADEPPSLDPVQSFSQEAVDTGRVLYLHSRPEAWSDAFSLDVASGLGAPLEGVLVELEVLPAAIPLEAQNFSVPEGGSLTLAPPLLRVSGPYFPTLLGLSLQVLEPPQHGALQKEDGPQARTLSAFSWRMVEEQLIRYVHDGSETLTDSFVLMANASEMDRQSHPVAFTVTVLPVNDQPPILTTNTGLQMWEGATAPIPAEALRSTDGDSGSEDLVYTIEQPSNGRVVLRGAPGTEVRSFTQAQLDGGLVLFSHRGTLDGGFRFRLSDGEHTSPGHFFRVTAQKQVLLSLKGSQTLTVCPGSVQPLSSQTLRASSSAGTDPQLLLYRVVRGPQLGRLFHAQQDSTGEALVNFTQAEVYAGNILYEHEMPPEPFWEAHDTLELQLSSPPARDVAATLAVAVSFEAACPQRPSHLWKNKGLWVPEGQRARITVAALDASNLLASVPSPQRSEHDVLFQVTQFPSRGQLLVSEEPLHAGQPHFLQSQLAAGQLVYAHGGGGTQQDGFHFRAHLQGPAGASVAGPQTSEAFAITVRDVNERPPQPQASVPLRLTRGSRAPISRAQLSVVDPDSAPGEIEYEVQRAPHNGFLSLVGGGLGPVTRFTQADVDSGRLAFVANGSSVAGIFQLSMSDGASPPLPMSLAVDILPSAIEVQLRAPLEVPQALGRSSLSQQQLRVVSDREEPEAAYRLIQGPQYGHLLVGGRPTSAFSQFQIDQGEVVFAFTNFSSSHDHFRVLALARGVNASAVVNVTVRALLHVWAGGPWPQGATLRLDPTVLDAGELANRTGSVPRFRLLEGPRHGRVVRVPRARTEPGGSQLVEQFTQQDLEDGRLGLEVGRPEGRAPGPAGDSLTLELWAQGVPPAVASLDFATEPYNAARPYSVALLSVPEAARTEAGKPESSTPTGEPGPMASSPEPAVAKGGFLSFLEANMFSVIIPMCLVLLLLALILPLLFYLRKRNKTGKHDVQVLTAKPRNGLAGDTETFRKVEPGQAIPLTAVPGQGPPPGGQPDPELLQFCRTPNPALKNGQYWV

inhibition of adhesion of cells to fibronectin [1]: 45% | inhibition of cell growth in a 3D matrix setting (TNBC cells) [1]: 70% | inhibition of motility towards fibronectin in a Boyden chamber assay [1]: 56% | % of stained cells [2]: 8.5% | MFI [2]: 12 | % of stained cells [3]: 13% | MFI [3]: 3.8 | % of stained cells [4]: 66.7% | MFI [4]: 379 | % of stained cells [5]: 1.5% | MFI [5]: 4.6 | % of stained cells [6]: 93.4% | MFI [6]: 193 | % of stained cells [7]: 83.8% | MFI [7]: 53.8 | % of stained cells [8]: 96.1% | MFI [8]: 714 | % of stained cells [9]: 11.4% | MFI [9]: 9.8 | % of stained cells [10]: 71.7% | MFI [10]: 196 | % of stained cells [11]: 95.7% | MFI [11]: 179 | % of stained cells [12]: 85.7% | MFI [12]: 53.8 | % of stained cells [13]: 99.7% | MFI [13]: 694
Substance: CSPG4-specific mAb 225.28 (antibody)

% of stained cells [2]: 17.4% | MFI [2]: 13.8 | % of stained cells [3]: 0.5% | MFI [3]: 3.4 | % of stained cells [4]: 61.4% | MFI [4]: 39.2 | % of stained cells [5]: 0% | MFI [5]: 2 | % of stained cells [6]: 1.3% | MFI [6]: 2.8 | % of stained cells [7]: 91.2% | MFI [7]: 154 | % of stained cells [8]: 93.5% | MFI [8]: 79.2 | % of stained cells [9]: 2.6% | MFI [9]: 2.4 | % of stained cells [10]: 33.9% | MFI [10]: 17.6 | % of stained cells [11]: 3% | MFI [11]: 3.1 | % of stained cells [12]: 16.6% | MFI [12]: 6.9 | % of stained cells [13]: 96.4% | MFI [13]: 50.5
Substance: CSPG4-specific mAb 763.74 (antibody)

% of stained cells [2]: 13.8% | MFI [2]: 11.9 | % of stained cells [3]: 0.3% | MFI [3]: 2.7 | % of stained cells [4]: 52.6% | MFI [4]: 34.2 | % of stained cells [5]: 0.1% | MFI [5]: 2.1 | % of stained cells [6]: 0.9% | MFI [6]: 2.8 | % of stained cells [7]: 88.4% | MFI [7]: 142 | % of stained cells [8]: 86.8% | MFI [8]: 63.3 | % of stained cells [9]: 2.5% | MFI [9]: 2.5 | % of stained cells [10]: 17.6% | MFI [10]: 14.5 | % of stained cells [11]: 1.4% | MFI [11]: 2.7 | % of stained cells [12]: 12% | MFI [12]: 6.1 | % of stained cells [13]: 91.9% | MFI [13]: 40.4
Substance: CSPG4-specific mAb TP41.2 (antibody)

% of stained cells [2]: 3.5% | MFI [2]: 7.8 | % of stained cells [3]: 0% | MFI [3]: 2.3 | % of stained cells [4]: 92.3% | MFI [4]: 109 | % of stained cells [5]: 0.1% | MFI [5]: 2.4 | % of stained cells [6]: 51.1% | MFI [6]: 19.6 | % of stained cells [7]: 68.3% | MFI [7]: 86.3 | % of stained cells [8]: 82.4% | MFI [8]: 61.1 | % of stained cells [9]: 9.9% | MFI [9]: 3.2 | % of stained cells [10]: 72.4% | MFI [10]: 34.4 | % of stained cells [11]: 51.2% | MFI [11]: 10.5 | % of stained cells [12]: 75.6% | MFI [12]: 33.6 | % of stained cells [13]: 98% | MFI [13]: 93
Substance: CSPG4-specific mAb TP61.5 (antibody)

% of stained cells [14]: 0.7% | MFI [14]: 6.2 | % of stained cells [15]: 6.2% | MFI [15]: 10.4 | % of stained cells [16]: 0.4% | MFI [16]: 13 | MFI [17]: 4.3 | % of stained cells [18]: 2% | MFI [18]: 2.7 | % of stained cells [19]: 0.3% | MFI [19]: 9.8 | % of stained cells [20]: 0.7% | MFI [20]: 9.1 | % of stained cells [21]: 0.6% | MFI [21]: 1.8 | % of stained cells [22]: 0.5% | MFI [22]: 10 | % of stained cells [23]: 0.5% | % of stained cells [24]: 0.4% | MFI [24]: 3.7 | % of stained cells [25]: 0.5% | MFI [25]: 3
Substance: Isotype control (antibody)
